Source: patent US20240058465A1 (SUTRO BIOPHARMA, published 2024)
Residue numbers refer to the chain shown, from its start.

B1: SRP2188-A02 (antibody, IgG1, V domains shown)
VH: EVQLVESGGGLVQPGGSLRLSCAASGFNIKSYDIHWVRQAPGKGLEWVGWINPEDGDTYYADSVKGRFTISADTSKNTAYLQMNSLRAEDTAVYYCARDFGVFDYWGQGTLVTVSS
VL: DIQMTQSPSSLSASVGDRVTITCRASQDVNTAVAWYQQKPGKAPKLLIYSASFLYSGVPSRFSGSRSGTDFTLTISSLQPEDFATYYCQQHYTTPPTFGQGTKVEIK
notes: IgG1 with trastuzumab LC; HIS- and FLAG-tagged; cell-free expressed
B2: SRP2188-D05 (antibody, IgG1, V domains shown)
VH: B1 VH with K30S, S31E, W50G, N52D, E54H, D57W, Y59D, Y60H, F100Y, F103Y
VL: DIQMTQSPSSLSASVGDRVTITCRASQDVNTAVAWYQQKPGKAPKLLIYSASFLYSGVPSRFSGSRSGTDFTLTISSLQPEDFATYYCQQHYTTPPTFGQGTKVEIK
notes: as for B1
B3: SRP2188-D02 (antibody, IgG1, V domains shown)
VH: B1 VH with K30S, S31D, W50G, N52D, D57A, Y59D, F100Y
VL: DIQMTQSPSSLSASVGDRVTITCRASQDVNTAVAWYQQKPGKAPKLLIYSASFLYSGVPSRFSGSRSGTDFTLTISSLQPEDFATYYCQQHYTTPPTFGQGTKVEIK
notes: as for B1
B4: SRP2188-C11 (antibody, IgG1, V domains shown)
VH: B1 VH with E54D, Y60L, F100Y
VL: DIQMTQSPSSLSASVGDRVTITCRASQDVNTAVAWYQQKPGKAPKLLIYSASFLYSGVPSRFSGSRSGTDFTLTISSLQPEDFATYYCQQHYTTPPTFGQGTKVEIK
notes: as for B1
B5: SRP2188-B08 (antibody, IgG1, V domains shown)
VH: B1 VH with K30D, E54D, Y59F, N84D, F100Y
VL: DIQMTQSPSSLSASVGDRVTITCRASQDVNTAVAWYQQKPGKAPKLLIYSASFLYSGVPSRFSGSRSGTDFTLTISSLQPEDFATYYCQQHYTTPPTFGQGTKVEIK
notes: as for B1
B6: SRP2188-E02 (antibody, IgG1, V domains shown)
VH: B1 VH with K30P, S31D, D33E, W50G, N52E, E54H, D57S, Y59D, F100Y, F103Y
VL: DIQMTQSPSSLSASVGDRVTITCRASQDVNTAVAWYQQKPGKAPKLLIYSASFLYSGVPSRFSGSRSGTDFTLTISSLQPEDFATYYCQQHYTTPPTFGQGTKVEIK
notes: as for B1
B7: SRP2188-F01 (antibody, IgG1, V domains shown)
VH: B1 VH with K30R, S31Y, W50L, N52D, E54D, D57W, Y59V, Y60S, F100Y
VL: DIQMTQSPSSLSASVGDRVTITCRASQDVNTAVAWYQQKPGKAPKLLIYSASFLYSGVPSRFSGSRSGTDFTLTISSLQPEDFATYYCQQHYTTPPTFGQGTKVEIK
notes: as for B1
B8: SRP2188-F09 (antibody, IgG1, V domains shown)
VH: B1 VH with G10D, K30R, S31D, G49S, W50A, N52D, E54N, D57S, Y59D, F100Y
VL: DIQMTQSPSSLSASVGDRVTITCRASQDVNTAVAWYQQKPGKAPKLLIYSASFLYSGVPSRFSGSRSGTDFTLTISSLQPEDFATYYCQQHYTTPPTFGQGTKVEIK
notes: as for B1
B9: SRP2188-A08 (antibody, IgG1, V domains shown)
VH: B1 VH with K30H, S31N, Y32F, E54F, Q82R, V93A, F100Y
VL: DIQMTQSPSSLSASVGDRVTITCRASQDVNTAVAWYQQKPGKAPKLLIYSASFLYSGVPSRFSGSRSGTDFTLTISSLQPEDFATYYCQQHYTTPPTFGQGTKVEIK
notes: as for B1
B10: SRP2188-B04 (antibody, IgG1, V domains shown)
VH: B1 VH with K30T, S31W, E54D, F100Y
VL: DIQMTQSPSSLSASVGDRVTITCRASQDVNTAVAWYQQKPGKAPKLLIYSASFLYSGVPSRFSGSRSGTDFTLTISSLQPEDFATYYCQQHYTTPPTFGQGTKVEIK
notes: as for B1
B11: SRP2188-D10 (antibody, IgG1, V domains shown)
VH: B1 VH with K30S, S31D, W50R, N52D, E54R, D57A, Y59D, F100Y
VL: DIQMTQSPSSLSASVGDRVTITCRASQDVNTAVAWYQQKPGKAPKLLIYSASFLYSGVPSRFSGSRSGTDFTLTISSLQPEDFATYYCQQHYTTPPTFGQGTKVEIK
notes: as for B1
B12: SRP2188-F10 (antibody, IgG1, V domains shown)
VH: B1 VH with K30S, S31V, Y32F, W50G, N52D, E54N, D57A, Y59D, Y60H, F100Y
VL: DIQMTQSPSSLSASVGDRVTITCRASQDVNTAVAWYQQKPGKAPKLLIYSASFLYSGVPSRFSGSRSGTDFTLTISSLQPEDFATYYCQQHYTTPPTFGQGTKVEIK
notes: as for B1
B13: SRP2188-E05 (antibody, IgG1, V domains shown)
VH: B1 VH with K30S, S31D, G49A, W50G, N52E, E54W, D57S, Y59D, Y60H, F100Y
VL: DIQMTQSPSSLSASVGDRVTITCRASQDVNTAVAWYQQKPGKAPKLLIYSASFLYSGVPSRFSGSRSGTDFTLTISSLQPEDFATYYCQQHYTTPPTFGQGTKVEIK
notes: as for B1
B14: SRP2188-D08 (antibody, IgG1, V domains shown)
VH: B1 VH with K30R, S31D, G49V, W50G, N52D, E54D, D57A, Y59D, Y60E, F100Y
VL: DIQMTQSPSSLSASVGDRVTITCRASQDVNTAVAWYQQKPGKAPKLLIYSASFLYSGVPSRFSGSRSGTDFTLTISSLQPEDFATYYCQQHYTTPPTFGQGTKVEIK
notes: as for B1
B15: SRP2188-E10 (antibody, IgG1, V domains shown)
VH: B1 VH with K30G, S31D, Y32F, W50G, N52D, E54R, D57A, Y59D, F100Y
VL: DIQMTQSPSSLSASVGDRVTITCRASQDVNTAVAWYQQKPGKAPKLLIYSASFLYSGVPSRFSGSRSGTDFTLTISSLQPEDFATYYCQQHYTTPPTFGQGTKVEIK
notes: as for B1
B16: SRP2188-F05 (antibody, IgG1, V domains shown)
VH: B1 VH with K30S, S31D, W50G, N52D, E54R, D57A, Y59D, Y60S, F100Y
VL: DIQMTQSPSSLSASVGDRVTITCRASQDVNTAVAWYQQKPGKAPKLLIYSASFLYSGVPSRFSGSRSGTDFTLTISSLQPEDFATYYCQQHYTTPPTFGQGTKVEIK
notes: as for B1
B17: SRP2188-C03 (antibody, IgG1, V domains shown)
VH: B1 VH with K30N, E54D, F100Y
VL: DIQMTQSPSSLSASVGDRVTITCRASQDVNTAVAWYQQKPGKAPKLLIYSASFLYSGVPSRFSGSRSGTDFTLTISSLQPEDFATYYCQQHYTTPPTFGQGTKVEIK
notes: as for B1
B18: SRP2188-F04 (antibody, IgG1, V domains shown)
VH: EVQLVESGGSLVQPGGSLRLSCAASGFNISDFDIHWVRQAPGKGLEWVSGIDPDDGATDYADSVKGRFTISADTSKNTAYLQMNSLRAEDTAVYYCARDYGVFDYWGQGTLVTVSS
VL: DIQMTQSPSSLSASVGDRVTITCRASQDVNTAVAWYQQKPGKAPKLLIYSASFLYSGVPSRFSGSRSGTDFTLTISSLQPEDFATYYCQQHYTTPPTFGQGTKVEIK
notes: as for B1
B19: SRP2188-F03 (antibody, IgG1, V domains shown)
VH: B18 VH with S10G, F32Y, A57S
VL: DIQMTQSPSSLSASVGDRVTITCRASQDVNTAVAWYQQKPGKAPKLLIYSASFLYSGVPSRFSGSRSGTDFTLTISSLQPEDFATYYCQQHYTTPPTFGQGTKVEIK
notes: as for B1
B20: SRP2188-D11 (antibody, IgG1, V domains shown)
VH: B18 VH with S10G, P14T, S30R, F32Y, S49G, G50L, A57S, Y60E
VL: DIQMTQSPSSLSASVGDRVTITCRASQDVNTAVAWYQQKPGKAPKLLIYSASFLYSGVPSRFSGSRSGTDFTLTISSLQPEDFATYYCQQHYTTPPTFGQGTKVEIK
notes: as for B1
B21: SRP2188-C02 (antibody, IgG1, V domains shown)
VH: B1 VH with K30E, S31R, E54D, M83T, N84K, F100Y
VL: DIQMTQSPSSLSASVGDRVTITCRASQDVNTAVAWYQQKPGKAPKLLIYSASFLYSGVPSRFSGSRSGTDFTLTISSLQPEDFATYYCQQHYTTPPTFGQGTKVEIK
notes: as for B1
B22: SRP2188-B01 (antibody, IgG1, V domains shown)
VH: B1 VH with K30N, Y32H, E54D, F100Y, F103L
VL: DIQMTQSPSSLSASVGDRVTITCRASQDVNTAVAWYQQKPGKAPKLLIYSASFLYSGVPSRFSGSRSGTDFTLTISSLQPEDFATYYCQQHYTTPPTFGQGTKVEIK
notes: as for B1
B23: SRP2188-C07 (antibody, IgG1, V domains shown)
VH: B1 VH with K30V, S31R, E54D, F100Y
VL: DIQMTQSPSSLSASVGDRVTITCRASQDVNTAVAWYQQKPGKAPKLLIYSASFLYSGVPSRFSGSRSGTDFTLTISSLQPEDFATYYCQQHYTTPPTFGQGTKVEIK
notes: as for B1
B24: SRP2188-D07 (antibody, IgG1, V domains shown)
VH: B18 VH with S10G, S49V, D54T
VL: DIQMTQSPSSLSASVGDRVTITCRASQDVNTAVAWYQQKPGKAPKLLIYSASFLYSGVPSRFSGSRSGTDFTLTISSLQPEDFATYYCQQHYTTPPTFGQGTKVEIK
notes: as for B1
B25: SRP2188-E06 (antibody, IgG1, V domains shown)
VH: B18 VH with S10G, S30G, F32Y, S49G, D54E, Y60I, N84D
VL: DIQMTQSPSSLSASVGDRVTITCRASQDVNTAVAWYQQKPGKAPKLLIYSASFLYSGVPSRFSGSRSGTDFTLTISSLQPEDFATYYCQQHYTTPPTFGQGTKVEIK
notes: as for B1
B26: SRP2188-G04 (antibody, IgG1, V domains shown)
VH: B18 VH with S10G, S30F, F32Y, S49G, D54R, A57S, Y60H, F103Y
VL: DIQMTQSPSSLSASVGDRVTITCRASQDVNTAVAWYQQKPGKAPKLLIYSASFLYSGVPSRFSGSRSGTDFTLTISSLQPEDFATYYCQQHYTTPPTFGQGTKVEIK
notes: as for B1

Experiments:
[1] = target: T1, human ROR1 (hROR1) expressed on cells (human, UniProt Q01973 30-937); test: cell-based or functional assay
[2] = target: T1, human ROR1 (hROR1) expressed on cells; test: flow cytometry, HCT116-hROR1 cells
human ROR1-ECD = target: T2, human ROR1-ECD (human, UniProt Q01973 30-406); test: SPR (Biacore), antibody captured by anti-Fc, human ROR1-ECD analyte
T2 construct: Bought protein; also called hROR1; ROR1-extracellular domain
Method: Anti-Fc polyclonal antibodies were immobilized onto a CMS chip (GE Life Sciences) using amine coupling chemistry (from Amine Coupling Kit, GE Life Sciences). The immobilization steps were carried out at a flow rate of 25 μL/min in 1×HBS-EP+buffer (GE Life Sciences; 10× Stock diluted before use). The sensor surfaces were activated for 7 min with a mixture of NHS (0.05 M) and EDC (0.2 M). The Anti-Fc antibodies were injected over all 4 flow cells at a concentration of 25 ug/ml in 10 mM sodium acetate, pH 4.5, for 7 min. Ethanolamine (1 M, pH 8.5) was injected for 7 min to block any remaining activated groups.
Off-rate and kinetic binding experiments were performed at 25° C. using 1×HBS-EP+buffer. Test and control antibodies were injected over the anti-Fc surface at concentrations of 5-10 μg/mL for 12 seconds at a flow rate of 10 μL/min on flow cells 2, 3 and 4, followed by a buffer wash for 30 seconds at the same flow rate. […] After capturing ligand (antibody) on the anti-Fc surface, the analyte (hROR1, Fz or Kr domains, Acro Biosystems, Delaware) was bound for 180 seconds, followed by a 600 second dissociation phase at a flow rate of 50 μL/min. Between each ligand capture and analyte binding cycle, regeneration was carried out using 2 injections of 10 mM Glycine pH 2.0 for 30 seconds at 30 μL/min, followed by a 30 second buffer wash step.

| Binder | Mino Nb-PBD, drug-conjugated 2° antibody Cell Killing IC50 [1] | Mino Nb-PBD, drug-conjugated 2° antibody Cell Killing Span [1] | Bmax (MFI) [2] | Kd [2] | Kd (human ROR1-ECD) | koff (human ROR1-ECD) | kon (human ROR1-ECD) |
| --- | --- | --- | --- | --- | --- | --- | --- |
| B1 | 0.7 pM | 65% | 9390 MFI | 30 pM |  |  |  |
| B2 |  |  | 9840 MFI | 40 pM | 480 pM | 0.000359 s⁻¹ | 747000 M⁻¹ s⁻¹ |
| B3 | 1.4 pM | 72% | 10000 MFI | 40 pM |  |  |  |
| B4 |  |  | 9210 MFI | 40 pM | 873 pM | 0.000617 s⁻¹ | 707000 M⁻¹ s⁻¹ |
| B5 | 6.2 pM | 71% | 9210 MFI | 90 pM |  |  |  |
| B6 | 0.75 pM | 76% | 10500 MFI | 70 pM |  |  |  |
| B7 |  |  | 8660 MFI | 20 pM | 546 pM | 0.000316 s⁻¹ | 578000 M⁻¹ s⁻¹ |
| B8 | 1.8 pM | 59% | 8760 MFI | 20 pM |  |  |  |
| B9 | 20 pM | 75% | 8130 MFI | 180 pM |  |  |  |
| B10 | 1.2 pM | 73% | 9660 MFI | 50 pM |  |  |  |
| B11 | 1 pM | 65% | 9070 MFI | 50 pM |  |  |  |
| B12 |  |  | 8480 MFI | 30 pM | 399 pM | 0.000399 s⁻¹ | 1e+06 M⁻¹ s⁻¹ |
| B13 |  |  | 10600 MFI | 50 pM | 369 pM | 0.00031 s⁻¹ | 840000 M⁻¹ s⁻¹ |
| B14 |  |  | 9600 MFI | 50 pM | 381 pM | 0.000268 s⁻¹ | 703000 M⁻¹ s⁻¹ |
| B15 | 0.99 pM | 73% | 9120 MFI | 40 pM |  |  |  |
| B16 |  |  | 9620 MFI | 40 pM | 587 pM | 0.00051 s⁻¹ | 870000 M⁻¹ s⁻¹ |
| B17 | 1.1 pM | 71% | 9600 MFI | 30 pM |  |  |  |
| B18 | 0.72 pM | 71% | 10000 MFI | 30 pM |  |  |  |
| B19 | 1.1 pM | 71% | 10100 MFI | 40 pM |  |  |  |
| B20 |  |  | 9600 MFI | 20 pM | 741 pM | 0.00055 s⁻¹ | 743000 M⁻¹ s⁻¹ |
| B21 | 10 pM | 73% | 9920 MFI | 130 pM |  |  |  |
| B22 | 0.69 pM | 75% | 9470 MFI | 40 pM |  |  |  |
| B23 | 0.85 pM | 71% | 9160 MFI | 40 pM |  |  |  |
| B24 | 1.7 pM | 70% | 8990 MFI | 40 pM |  |  |  |
| B25 |  |  | 9970 MFI | 40 pM | 438 pM | 0.000346 s⁻¹ | 790000 M⁻¹ s⁻¹ |
| B26 |  |  | 8990 MFI | 20 pM | 406 pM | 0.000259 s⁻¹ | 639000 M⁻¹ s⁻¹ |
